The subject of the data set is O=C(O)CNCP(=O)(O)O. The data set is described as follows: Substrate saturation kinetic analysis of purified GLYAT. The note with it: other: SEQ ID NO:26, pH 7.0, non-varied substrate saturating, 37.0 °C. Type of data set: biochemical. The method, then: E. coli cultures in LB or 2×YT were grown overnight at 37° C. to saturation. The cells were used as a 2% inoculum into fresh media. When OD reached 0.6, IPTG was added to 0.2 mM and growth was continued for at least 6 hours. Cells were harvested by centrifugation and stored at −80° C. Cells were lysed with BPER (Pierce) containing 1 mM dithiothreitol, 0.2 mg/ml lysozyme, 2 mg/ml protease inhibitor cocktail (Sigma bacterial cell cocktail, P8465) and endonuclease. Lysate supernatants were passed through a column of NHS-activated Agarose (Thermo, #26197) derivatized with coenzyme A. Columns were washed with 25 mM Hepes, pH 7, containing progressively higher concentrations of KCl, then eluted with 25 mM Hepes, 100 mM KCl, 10% ethylene glycol and 1 mM acetyl CoA. Purity as evaluated by polyacrylamide gel electrophoresis was deemed consistently high enough to be assumed to be 100%. Protein concentration was determined with the Bradford assay using a large-scale lot of produced GLYAT protein as standard.
Kinetic parameters for various substrates were obtained using a range of seven substrate concentrations plus a blank containing none of the varied substrate. The non-varied substrate was present at a saturating concentration. Six-microliter aliquots of 50-fold concentrated stock solutions of the varied substrate were placed in a 96-well assay plate (Greiner BioOne UV-Star). Reactions were started with the addition of 294 ul of 25 mM Hepes, pH 7.0, 100 mM KCL, 10% ethylene glycol, the non-varied substrate and 10 to 200 nM enzyme. Absorbance was monitored for one minute with a Spectramax 384 Plus plate reader (Molecular Devices). If the amino acid present at position 30 (29 if alanine is absent at position 2) was cysteine, absorbance was monitored at 235 nm, which directly detects cleavage of the sulfoester bond of acetyl CoA. If the amino acid present at position 30 (29 if alanine is absent at position 2) was isoleucine, 0.5 mM 5,5′-dithiobis-(2-nitrobenzoic acid), which reacts with the coenzyme A thiol generated in the enzyme catalyzed reaction, was included in the reaction mix and absorbance was monitored at 412 nm. Initial rates were processed by the Softmax software to obtain kinetic parameters, using the double-reciprocal transformation.
The sequences with the new substitutions were derived through a combination of saturation mutagenesis of an already fit protein (SEQ ID NO:26) and an effective screening cascade as a means of identifying the improved genes (Examples 1-2). Regions in which novel changes are concentrated include helix H2a (positions 23 and 25-29) and the hairpin formed by strands B6 and B7 (positions 124-144). These two structures are components of the amino substrate binding site. Helix H3, the backbone to which the central beta sheet is anchored, is a region where 24% of the novel substitutions (17 out of 71) disclosed in Table 4 are concentrated into 11% of the positions (16 out of 146). None of those are near enough to the active site to influence substrate specificity directly. In three cases, multiple novel substitutions were discovered immediately or nearly adjacent to conserved amino acids shown previously to contribute to the catalytic mechanism (Siehl D L et. al., J Biol Chem, 282:11446, 2007). The catalytic amino acids for which this is the case are R21, R111, H138 and the nearby positions with multiple substitutions are 23, 112 and 137. The diverse amino acids at these positions may influence the orientation of the neighboring catalytic amino acids so as to selectively optimize catalysis with the preferred substrate, glyphosate.

Broadly, the Km is the concentration of substrate that gives half-maximal velocity. As a reminder, the kcat is the number of substrate molecules converted per active site and unit of time at saturation. The kcat/Km is the turnover number divided by the Michaelis constant.

Regarding “GLYAT (glyphosate-N-acetyltransferase), parent of saturation mutagenesis (already fit protein), SEQ ID NO:26 (derived from SEQ ID NO:1 and 2) (Bacillus licheniformis DSM 13 = ATCC 14580; A28V/C29I/D131E/E14D/E65Q/E67K/E68K/E83D/G37R/I132T/I135A/I15L/I19V/I53V/I91V/K101R/K144R/K58Q/L105M/L26I/L97I/M75V/R47G/R92K/T89S/V114A/Y130F/Y45F)”, the Km worked out at 220 µM, the kcat is 9.33 s⁻¹ and the kcat/Km worked out at 41750 M⁻¹ s⁻¹.

The record behind these values is US11236354B2, “Glyphosate-n-acetyltransferase (GLYAT) sequences and methods of use” (PIONEER HI-BRED INTERNATIONAL, INC., priority 2013, dated 2022).
